Measurements published in patent publication US20230183336A1 (MODMAB THERAPEUTICS, published 2023).

What was measured:
[1] = target: T1, recombinant mouse LRP6-His chimera (mouse, UniProt O88572 20-1370); assay: single-point ELISA, coated antigen, purified Fab or IgG1, anti-kappa-HRP
T1 construct: extracellular domain; also called ECD of mouse LRP6; not shown: His tag
T1 sequence (looked up): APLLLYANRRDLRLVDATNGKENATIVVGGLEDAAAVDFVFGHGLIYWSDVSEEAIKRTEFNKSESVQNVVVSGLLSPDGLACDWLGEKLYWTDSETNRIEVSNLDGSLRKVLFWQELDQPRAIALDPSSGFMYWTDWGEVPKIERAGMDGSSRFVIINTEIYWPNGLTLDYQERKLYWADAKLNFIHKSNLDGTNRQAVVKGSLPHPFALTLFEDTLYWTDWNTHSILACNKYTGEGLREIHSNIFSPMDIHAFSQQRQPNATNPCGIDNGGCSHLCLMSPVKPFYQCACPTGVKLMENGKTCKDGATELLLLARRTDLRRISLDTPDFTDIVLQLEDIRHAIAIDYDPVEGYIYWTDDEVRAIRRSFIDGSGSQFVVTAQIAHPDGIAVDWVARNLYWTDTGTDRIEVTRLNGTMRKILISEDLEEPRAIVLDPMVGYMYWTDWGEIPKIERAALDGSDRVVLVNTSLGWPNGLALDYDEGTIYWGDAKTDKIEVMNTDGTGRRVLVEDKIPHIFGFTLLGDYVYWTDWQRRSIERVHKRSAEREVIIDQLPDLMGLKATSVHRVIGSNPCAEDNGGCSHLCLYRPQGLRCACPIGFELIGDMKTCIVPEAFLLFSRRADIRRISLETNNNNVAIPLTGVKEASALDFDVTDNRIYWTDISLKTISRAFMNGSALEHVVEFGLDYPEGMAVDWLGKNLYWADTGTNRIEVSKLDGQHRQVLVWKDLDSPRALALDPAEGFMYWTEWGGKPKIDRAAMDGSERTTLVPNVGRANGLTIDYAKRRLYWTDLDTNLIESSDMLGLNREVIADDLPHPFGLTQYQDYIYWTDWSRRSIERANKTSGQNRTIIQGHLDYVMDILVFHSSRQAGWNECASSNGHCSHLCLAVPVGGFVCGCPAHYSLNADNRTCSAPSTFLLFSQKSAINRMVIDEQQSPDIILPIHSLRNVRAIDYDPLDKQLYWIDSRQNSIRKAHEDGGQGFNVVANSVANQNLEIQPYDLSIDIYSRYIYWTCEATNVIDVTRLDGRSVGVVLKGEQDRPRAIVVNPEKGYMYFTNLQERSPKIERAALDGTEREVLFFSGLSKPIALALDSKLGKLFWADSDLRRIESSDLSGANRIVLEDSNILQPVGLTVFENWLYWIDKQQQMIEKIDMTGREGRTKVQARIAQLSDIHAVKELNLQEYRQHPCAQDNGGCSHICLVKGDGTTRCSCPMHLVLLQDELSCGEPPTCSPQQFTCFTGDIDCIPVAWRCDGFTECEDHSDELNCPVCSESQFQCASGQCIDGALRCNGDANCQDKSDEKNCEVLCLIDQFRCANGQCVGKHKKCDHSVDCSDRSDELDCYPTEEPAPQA
Procedure: (§1) FIGS. 1A and 1B show sixteen (16) anti-LRP antibodies. (A) The amino acid sequences of the complementarity determining regions (CDR) of the heavy (H) and the light (L) chains are presented. The antibodies were grouped into unique epitopes as determined by competitive ELISAs. (B) Single-point ELISAs were performed on 96-well Maxisorb immune plates coated with ECD's of mouse LRP5, mouse LRP6 and human LRP6 chimeras. The plates were incubated with the purified Fab or IgG1 at the concentrations indicated followed by incubation with horseradish peroxidase (HRP)-conjugated anti-kappa antibody. The wells were washed eight times followed by incubation with 3,3′,5,5′-tetramethylbenzidine/H₂O₂ peroxidase (TMB) substrate for 5-10 min. The reaction was stopped by adding 1M H₃PO₄ and the absorbance was measured spectrometrically at 450 nm in a microtiter plate reader. FIG. 1A discloses “SSVA” as SEQ ID NO: 34, and “SASSLYS” as SEQ ID NO: 35, as well as SEQ ID NOS 36-49, 51, 44, 2-4, 4, 5-7, 5, 4, 5, 8-10, 4, 52, 55, 11-16, 15, 15, 13, 17-20, 13, 53, 56, 21-23, 22, 24-33, 54, 57, respectively, in order of columns.
(§2) The full length IgG1s and the antibody fragments (Fabs) were purified and a single-point ELISA was done to determine the specificity of the antibodies. […] A multipoint competitive ELISA was used to determine the relative affinities of the antibodies to the recombinant antigen.

[2] = target: T2, recombinant mouse LRP5-His chimera (mouse, UniProt Q91VN0 31-1383); assay: as above
T2 construct: extracellular domain; also called ECD of mouse LRP5; not shown: His tag
T2 sequence (looked up): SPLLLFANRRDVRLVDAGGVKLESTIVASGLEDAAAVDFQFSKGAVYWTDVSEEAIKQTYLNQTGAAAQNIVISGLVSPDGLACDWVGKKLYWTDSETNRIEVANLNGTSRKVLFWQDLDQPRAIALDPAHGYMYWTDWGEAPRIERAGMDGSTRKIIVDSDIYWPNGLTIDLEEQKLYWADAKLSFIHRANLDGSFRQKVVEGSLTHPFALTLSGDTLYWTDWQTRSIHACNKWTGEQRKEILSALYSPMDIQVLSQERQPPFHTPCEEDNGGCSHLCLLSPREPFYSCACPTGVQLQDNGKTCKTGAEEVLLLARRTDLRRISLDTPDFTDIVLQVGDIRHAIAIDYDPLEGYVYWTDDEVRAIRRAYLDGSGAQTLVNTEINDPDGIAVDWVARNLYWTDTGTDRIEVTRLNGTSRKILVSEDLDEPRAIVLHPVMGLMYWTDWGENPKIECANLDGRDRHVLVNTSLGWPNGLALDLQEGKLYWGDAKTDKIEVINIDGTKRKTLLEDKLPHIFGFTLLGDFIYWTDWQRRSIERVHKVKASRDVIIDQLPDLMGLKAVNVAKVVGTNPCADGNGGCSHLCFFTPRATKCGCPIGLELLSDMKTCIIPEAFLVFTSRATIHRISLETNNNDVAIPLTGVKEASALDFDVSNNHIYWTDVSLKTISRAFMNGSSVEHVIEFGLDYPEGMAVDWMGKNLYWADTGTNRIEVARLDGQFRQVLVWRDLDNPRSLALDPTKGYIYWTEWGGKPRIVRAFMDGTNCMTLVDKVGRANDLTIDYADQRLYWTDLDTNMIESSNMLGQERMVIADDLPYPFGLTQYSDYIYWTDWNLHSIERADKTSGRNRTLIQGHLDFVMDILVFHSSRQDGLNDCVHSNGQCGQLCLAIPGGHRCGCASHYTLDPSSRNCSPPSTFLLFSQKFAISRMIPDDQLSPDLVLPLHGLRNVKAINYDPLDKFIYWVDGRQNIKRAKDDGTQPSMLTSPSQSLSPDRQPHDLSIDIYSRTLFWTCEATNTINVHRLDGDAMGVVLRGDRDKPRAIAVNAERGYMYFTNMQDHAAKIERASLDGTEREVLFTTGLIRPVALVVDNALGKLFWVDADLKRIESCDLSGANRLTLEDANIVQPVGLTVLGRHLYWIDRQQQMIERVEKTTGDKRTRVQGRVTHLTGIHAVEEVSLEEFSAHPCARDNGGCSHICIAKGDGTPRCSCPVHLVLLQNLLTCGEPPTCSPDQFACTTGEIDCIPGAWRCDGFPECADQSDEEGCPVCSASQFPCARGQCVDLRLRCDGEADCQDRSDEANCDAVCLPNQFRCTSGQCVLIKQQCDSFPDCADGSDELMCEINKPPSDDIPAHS
Procedure: as §1, §2

B1: LRP5-R3O_D3 (antibody, V domains shown)
VH: EVQLVESGGGLVQPGGSLRLSCAASGFNFSSSSIHWVRQAPGKGLEWVASISSSYGYTYYADSVKGRFTISADTSKNTAYLQMNSLRAEDTAVYYCARSWAMDYWGQGTLVTVSS
VL: DIQMTQSPSSLSASVGDRVTITCRASQSVSSAVAWYQQKPGKAPKLLIYSASSLYSGVPSRFSGSRSGTDFTLTISSLQPEDFATYYCQQYWAYYSPITFGQGTKVEIKR
notes: Fab-phage in the screen; also called LRP5-R30_D3; LRP5-R30D3
- binding result [1]: binds
- binding result [2]: binds
